Data published in publication PMC10362042.
Where “and” joins values, the source holds several entries; their conditions need not be identical. Identical values can stand only once. Like-named read-outs stand apart in the source and are kept apart here.

Columns and labels:
Test in all cases: SPR
[1] = biological target: Rabbit ACE2 (rabbit)
[2] = biological target: Goat ACE2 (goat)
[3] = biological target: Sheep ACE2 (sheep)
[4] = biological target: Pig ACE2 (pig)
[5] = biological target: Pig ACE2 (pig); remark: listed apart in the source
[6] = biological target: Dog ACE2 (dog)

Substance | Kd [1] | Kd [2] | Kd [3] | Kd [4] | Kd [5] | Kd [6]
SARS-CoV-2 Omicron BA.1 RBD (residues 319-541) (from UniProt P0DTC2 319-541) (domain or fragment) | 60 nM and 43.7 nM | 174 nM and 180 nM (2×) and 188 nM | 62 nM and 66.8 nM and 71.5 nM | – | – | –
SARS-CoV-2 Omicron BA.2 RBD (residues 319-541) (from UniProt P0DTC2 319-541) (domain or fragment) | 76.3 nM and 53.8 nM and 59.3 nM | 111 nM and 102 nM and 106 nM (2×) | – | 719 nM and 678 nM | 654 nM and 662 nM | –
SARS-CoV-2 Omicron BA.4/5 RBD (residues 319-541) (from UniProt P0DTC2 319-541) (domain or fragment) | – | 29.1 nM and 26.2 nM and 25.3 nM | – | – | 6.1 nM and 7.2 nM and 8 nM | 211 nM and 146 nM and 186 nM
